According to patent US20100144029:

Target: ClpP proteasome (UniProt P0A6G7)

## processed E. coli ClpX protein (after proteolytic removal of the T7B carboxyl-terminal extension)
  ATPase activity and ability to cooperate with the ClpP proteasome in degrading model protein substrates: full biological activity
